The values below come from PMC4507774, “Arabidopsis seed-specific vacuolar aquaporins are involved in maintaining seed longevity under the control of ABSCISIC ACID INSENSITIVE 3”.

In data set [1] the target is T1, ABI3-B3 (partial ABI3, B3 domain) (UniProt Q01593 559-720).
T1 sequence: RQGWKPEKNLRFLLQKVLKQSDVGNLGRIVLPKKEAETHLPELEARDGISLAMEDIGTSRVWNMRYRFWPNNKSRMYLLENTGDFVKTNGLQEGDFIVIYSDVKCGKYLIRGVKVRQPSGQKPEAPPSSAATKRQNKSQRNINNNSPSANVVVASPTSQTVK
Kind of data set: competition; 40- or 200-fold unlabelled competitor vs 31RY2-bio; EMSA: 1x LightShift binding buffer, 2.5% glycerol, 50 ng/ul poly(dI-dC), 50 mM KCl, 0.5 mM EDTA, 20 C, 30 min; pH not stated. To be noted: protein: recombinant; tags: His (pET28a, Ni-NTA); blunt. (A gel shift assay detects complexes by their altered migration in electrophoresis.)

Data set [2] deals with T1, ABI3-B3 (partial ABI3, B3 domain). The data set is described as follows: EMSA; EMSA: 1x LightShift binding buffer, 2.5% glycerol, 50 ng/ul poly(dI-dC), 50 mM KCl, 0.5 mM EDTA, 20 C, 30 min; pH not stated. The note with it: protein: recombinant; tags: His (pET28a, Ni-NTA); label: biotin; blunt.
Data set [3] has the same target. Kind of data set: competition; 40- or 200-fold unlabelled competitor vs 32RY-bio; EMSA: 1x LightShift binding buffer, 2.5% glycerol, 50 ng/ul poly(dI-dC), 50 mM KCl, 0.5 mM EDTA, 20 C, 30 min; pH not stated. The note with it: protein: recombinant; tags: His (pET28a, Ni-NTA); blunt.

B1: 31RY2-mu (dsDNA)
DNA 1: ATCTACTTGGCACAGCGCTAGCCTTAGTCAACACA
DNA 2: TGTGTTGACTAAGGCTAGCGCTGTGCCAAGTAGAT
In the case of B1, the binding result in data set [1] is given as “no binding”.

B2: 32RY-bio (TIP3;2 promoter RY) (dsDNA)
DNA 1: CTTGATCCACTTGGCACACATGCATAGATATATAGTCACAGC
DNA 2: GCTGTGACTATATATCTATGCATGTGTGCCAAGTGGATCAAG
On to B2, for which the binding result in data set [2] was “binds”.

B3: 32RY-cold (dsDNA)
DNA 1: CTTGATCCACTTGGCACACATGCATAGATATATAGTCACAGC
DNA 2: GCTGTGACTATATATCTATGCATGTGTGCCAAGTGGATCAAG
Regarding B3, in data set [3], the binding result is “binds”.

B4: 31RY2-bio (TIP3;1 promoter RY2) (dsDNA)
DNA 1: ATCTACTTGGCACACATGCATGCTTAGTCAACACA
DNA 2: TGTGTTGACTAAGCATGCATGTGTGCCAAGTAGAT
In the case of B4, the binding result in data set [2] is reported as “binds”.

B5: 31RY2-cold (dsDNA)
DNA 1: ATCTACTTGGCACACATGCATGCTTAGTCAACACA
DNA 2: TGTGTTGACTAAGCATGCATGTGTGCCAAGTAGAT
Turning to B5, in data set [1], the binding result is “binds”.

B6: 32RY-mu (dsDNA)
DNA 1: CTTGATCCACTTGGCACAGCGTACTAGATATATAGTCACAGC
DNA 2: GCTGTGACTATATATCTAGTACGCTGTGCCAAGTGGATCAAG
Consider B6, for which the binding result in data set [3] was “no binding”.
